{"source": "patent US20240423474A1", "about": "“SYSTEM AND METHOD FOR INTRAOPERATIVE LIFETIME IMAGING” (The General Hospital Corporation, priority 2021, published 2024)", "key": {"[1]": {"assay": "Widefield FLT of probes in culture media and stock solution in PBS", "assay_type": "physicochemical", "text": "In accordance with one particular and non-limiting study, for widefield time-domain imaging, a system akin that of FIG. 1 was used that included a Supercontinuum laser and tunable filter (EXR-20, SuperK Varia, NKT Photonics, 80 MHz repetition rate; 400-850 nm tuning range) providing 770±30 nm excitation, a multimode fiber (Thorlabs, Newton, New Jersey, United States) delivering light to the sample, and a gated intensified CCD (LaVision, Picostar, 500 V gain, 0.1 to 1 second integration time, 150 ps steps, 256×344 pixels after 4×4 hardware binning). A digital micromirror device was used to expand the output of the optical fiber and delivered to the surface of the animal. The average total power across the illumination area (approximately 6×8-cm) was 10 to 20 mW. Fluorescence was collected in reflectance mode using an 835/70-nm band-pass filter. TD fluorescence imaging was performed with a gate width of 600 ps and 150 ps steps for a total duration of approximately 6 ns per laser duty cycle of 12.5 ns. […] Animals were sacrificed after imaging and tumors were immediately frozen in optimal cutting temperature (OCT) compound for fluorescence lifetime imaging microscopy (FLIM), histology and immunohistochemical (IHC) staining.\nFor the widefield TD data analysis, TD fluorescence images were analyzed in MATLAB (MathWorks, Natick, Massachusetts, United States) using a custom software. […]"}, "FaDu cells": {"tested_on": "FaDu cells", "assay": "Confocal FLIM of FaDu cells incubated with imaging probes", "assay_type": "cell-based", "settings": "100 μg probe, 2 hours incubation", "protocol": "Also, a […] 8 FALCON (Leica, Germany) FLIM system was used for NIR FLIM of 10-μm thin tissue sections (murine tumors and clinical specimens). Imaging was performed using 730 nm excitation with 750 nm notch filter and detected with a HyD R detector operating within 770-850 nm range. A 10×, 0.4 NA objective was used for image collection and digital images with 512×512 pixels (2.275 μm/pixel), 4 line repetitions and 4 line averages were obtained. TD data was collected using time-correlated single photon counting.\nFor in vitro experiments, FaDu cells were plated at 0.2×10^6 cells per well in a 12-well plate containing poly-D-lysine coated glass coverslips and were allowed to adhere to the coverslips for 24 hours. […] After probe incubation, cells were fixed in 4% para-formaldehyde (PFA) and mounted with ProLong Gold Antifade medium (ThermoFisher Scientific, Waltham, Massachusetts, United States) for confocal FLIM.\nFor the FLIM and IHC image analysis, the FALCON/FLIM software was used to collect and analyze the FLIM data. Lifetime values at each pixel location was calculated by using a single exponential fitting of the fluorescence decay curves. […] IHC image ROIs were analyzed by color deconvolution using the IHC Tool Box in ImageJ (NIH, Version 1.48u) to extract EGFR positive pixels within each ROI. […] Corresponding FLIM image ROIs were analyzed by averaging FLT values above 0.3 ns. […]"}, "[2]": {"settings": "several recent clinical trials; cited from earlier work"}}}
{"substance": "panitumumab-IRDye800CW: conjugate of the FDA approved therapeutic antibody for the epidermal growth factor receptor (EGFR), panitumumab, with IRdye800CW, an NIR dye", "values": [{"measurement": "FLT in culture media", "setting": "[1]; culture media collected after incubation with cancer cells", "value": 0.58, "unit": "ns"}, {"measurement": "FLT of stock solution in PBS", "setting": "[1]; stock solution in PBS", "value": 0.58, "unit": "ns"}, {"measurement": "probe uptake in cells", "setting": "FaDu cells", "value": "higher probe uptake"}, {"measurement": "safety in humans", "setting": "[2]", "value": "safe for human use"}]}
